Two proteins from patent publication US20240336649A1 (MIT, published 2024) can be followed below.

Series [1] deals with the molecule itself. In words: EMSA with a 22 bp double-stranded E-box DNA probe. This is an indirect sign: the gel shows DNA binding, and the filing reads the missing shift as missing homodimerisation. An excerpt: (§1) The three synthetic analogs 10, 11, and 12 can form non-covalent dimers and bind to the target E-box DNA (5′-[…]-3′). […] However, it is not possible to determine which dimeric species form in a solution containing two different monomers. For instance, upon mixing Max (11) and Omomyc (12), three different dimers (Max/Max, Omomyc/Omomyc and Max/Omomyc) can form and potentially bind to DNA (FIG. 18). To assess the activity of these protein complexes in a reliable manner, access to well-defined covalent protein dimers is critical.

Series [2] deals with the molecule itself. Kind of series: non-covalent homodimer inferred from EMSA with E-box DNA (Omomyc+Omomyc).
Description: as §1

B1: Myc analog 10 (synthetic Myc monomer with a C-terminal cysteine) (other)
chain: NVKRRTHNVLERQRRNELKRSFFALRDQIPELENNEKAPKVVILKKATAYILSVQAEEQKLISEEDLLRKRREQLKHKLEQLGGC
notes: also called Myc 10
Consider B1, for which the binding result in series [1] was “no binding”.

B2: Omomyc analog 12 (synthetic Omomyc monomer with a C-terminal cysteine) (other)
chain: MATEENVKRRTHNVLERQRRNELKRSFFALRDQIPELENNEKAPKVVILKKATAYILSVQAETQKLISEIDLLRKQNEQLKHKLEQLRNSC
notes: Artificial mini-protein; the structure of 12 is in a drawing; also called Omomyc 12; Omomyc (12)
In the case of B2, the binding result in series [2] is listed as “binds”.
